We go through three proteins from patent publication US20030215874A1 (published 2003).

Data set [1] concerns the molecule itself. The experiment in a line: blue native PAGE (legend of FIG. 4), self-association.
Data set [2] deals with the molecule itself. In words: blue native PAGE (BN-PAGE), self-association.

B1: bis-ANS treated GRP94 (porcine pancreas GRP94 preincubated with bis-ANS) (other, UniProt Q29092 22-804, looked up)
chain: EDEVDVDGTVEEDLGKSREGSRTDDEVVQREEEAIQLDGLNASQIRELREKSEKFAFQAEVNRMMKLIINSLYKNKEIFLRELISNASDALDKIRLISLTDENALAGNEELTVKIKCDKEKNLLHVTDTGVGMTREELVKNLGTIAKSGTSEFLNKMAEAQEDGQSTSELIGQFGVGFYSAFLVADKVIVTSKHNNDTQHIWESDSNEFSVIADPRGNTLGRGTTITLVLKEEASDYLELDTIKNLVKKYSQFINFPIYVWSSKTETVEEPMEEEEAAKEEKEESDDEAAVEEEEEEKKPKTKKVEKTVWDWELMNDIKPIWQRPSKEVEDDEYKAFYKSFSKESDDPMAYIHFTAEGEVTFKSILFVPTSAPRGLFDEYGSKKSDYIKLYVRRVFITDDFHDMMPKYLNFVKGVVDSDDLPLNVSRETLQQHKLLKVIRKKLVRKTLDMIKKIADEKYNDTFWKEFGTNIKLGVIEDHSNRTRLAKLLRFQSSHHPSDITSLDQYVERMKEKQDKIYFMAGSSRKEAESSPFVERLLKKGYEVIYLTEPVDEYCIQALPEFDGKRFQNVAKEGVKFDESEKSKENREAVEKEFEPLLNWMKDKALKDKIEKAVVSQRLTESPCALVASQYGWSGNMERIMKAQAYQTGKDISTNYYASQKKTFEINPRHPLIRDMLRRVKEDEDDKTVSDLAVVLFETATLRSGYLLPDTKAYGDRIERMLRLSLNIDPDAKVEEEPEEEPEETTEDTTEDTEQDDDEEMDAGADEEEQETSETSTAEKDEL
On to B1, for which the binding result in data set [1] was “binds”.

B2: heat shocked GRP94 (porcine pancreas GRP94 incubated 15 minutes at 50 C) (other, UniProt Q29092 22-804, looked up)
chain: B1 chain
notes: also called hs GRP94; heat-treated GRP94
In the case of B2, the binding result in data set [2] was “binds”.

B3: GRP94 (glucose regulated protein of 94 kDa), native, purified from porcine pancreas (other, UniProt Q29092 22-804, looked up)
chain: B1 chain
notes: also called native GRP94; gp96
Regarding B3, the binding result in data set [2] is recorded as “binds”.
